Experimental data taken from the supplement of paper PMC9112550, “Optimization of the antimicrobial peptide Bac7 by deep mutational scanning” (BMC Biology, 2022).
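Also: peptides expressed intracellularly from a pBAD plasmid library in pooled LB shake-flask culture, induced with 0.3% L-arabinose, DNA abundance read by NGS, three biological replicates, DESeq2 with apeglm shrinkage.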

What follows are sequences tested on Escherichia coli TOP10 (assay: shrunken log2 fold change of peptide-encoding DNA abundance (4.5 h post-induction vs induction); higher = less antimicrobial activity (less host growth inhibition)). Details: time post-induction: 4.5 h; library: site-saturation at positions 5, 18, 19, 20.
RRIRLRPPRLPRPRPRPWGMPRP was tested, and the “shrunken log2 fold change” value was -0.0457.
In the case of RRIRPRPPRLPRPRPRPMPIPRP, the “shrunken log2 fold change” value is reported as 0.0579.
For RRIRARPPRLPRPRPRPFQNPRP, the “shrunken log2 fold change” value was -0.124.
For RRIRYRPPRLPRPRPRPYFNPRP, the “shrunken log2 fold change” value was -1.33.
With RRIRNRPPRLPRPRPRPTKVPRP the “shrunken log2 fold change” value was -0.153.
In the case of RRIRIRPPRLPRPRPRPATNPRP, the “shrunken log2 fold change” value is reported as -0.339.
RRIRPRPPRLPRPRPRPNFCPRP was tested, and the “shrunken log2 fold change” value was 0.257.
RRIRIRPPRLPRPRPRPMQWPRP was tested, and the “shrunken log2 fold change” value was -0.192.
RRIRGRPPRLPRPRPRPNNDPRP was tested, and the “shrunken log2 fold change” value was 0.247.
With RRIRNRPPRLPRPRPRPADWPRP the “shrunken log2 fold change” value was 0.044.
RRIRVRPPRLPRPRPRPIDSPRP was tested, and the “shrunken log2 fold change” value was -0.0289.
RRIRYRPPRLPRPRPRPVISPRP was tested, and the “shrunken log2 fold change” value was 0.0433.
With RRIRARPPRLPRPRPRPAAIPRP the “shrunken log2 fold change” value was 0.845.
For RRIRLRPPRLPRPRPRPNIFPRP, the “shrunken log2 fold change” value was 0.104.
For RRIRARPPRLPRPRPRPSCFPRP, the “shrunken log2 fold change” value was 0.0871.
In the case of RRIRSRPPRLPRPRPRPTFSPRP, the “shrunken log2 fold change” value is reported as 0.019.
With RRIRNRPPRLPRPRPRPWIYPRP the “shrunken log2 fold change” value was -0.187.
For RRIRIRPPRLPRPRPRPEWSPRP, the “shrunken log2 fold change” value was -0.26.
In the case of RRIRARPPRLPRPRPRPQHNPRP, the “shrunken log2 fold change” value is reported as -0.26.
With RRIRIRPPRLPRPRPRPVMTPRP the “shrunken log2 fold change” value was -0.166.
In the case of RRIRARPPRLPRPRPRPNNNPRP, the “shrunken log2 fold change” value is reported as -0.471.
RRIRVRPPRLPRPRPRPKIAPRP was tested, and the “shrunken log2 fold change” value was 0.0892.
For RRIRPRPPRLPRPRPRPMQGPRP, the “shrunken log2 fold change” value was -0.146.
In the case of RRIRLRPPRLPRPRPRPYNTPRP, the “shrunken log2 fold change” value is reported as -0.806.
With RRIRTRPPRLPRPRPRPQTCPRP the “shrunken log2 fold change” value was -0.176.
RRIRPRPPRLPRPRPRPALSPRP was tested, and the “shrunken log2 fold change” value was 0.139.
With RRIRFRPPRLPRPRPRPQFRPRP the “shrunken log2 fold change” value was -0.174.
RRIRRRPPRLPRPRPRPQAHPRP was tested, and the “shrunken log2 fold change” value was 0.544.
With RRIRGRPPRLPRPRPRPLYHPRP the “shrunken log2 fold change” value was 3.13.
In the case of RRIRIRPPRLPRPRPRPFYFPRP, the “shrunken log2 fold change” value is reported as -0.448.
RRIRDRPPRLPRPRPRPMYNPRP was tested, and the “shrunken log2 fold change” value was -0.354.
RRIRTRPPRLPRPRPRPAWEPRP was tested, and the “shrunken log2 fold change” value was 0.174.
RRIRRRPPRLPRPRPRPKNPPRP was tested, and the “shrunken log2 fold change” value was 0.124.
RRIRQRPPRLPRPRPRPKNTPRP was tested, and the “shrunken log2 fold change” value was -0.394.
With RRIRARPPRLPRPRPRPYDKPRP the “shrunken log2 fold change” value was -0.865.
For RRIRYRPPRLPRPRPRPWHHPRP, the “shrunken log2 fold change” value was -0.271.
For RRIRDRPPRLPRPRPRPGFPPRP, the “shrunken log2 fold change” value was 0.0346.
In the case of RRIRHRPPRLPRPRPRPYDNPRP, the “shrunken log2 fold change” value is reported as -0.0737.
RRIRCRPPRLPRPRPRPYQMPRP was tested, and the “shrunken log2 fold change” value was -1.3.
With RRIRKRPPRLPRPRPRPRCAPRP the “shrunken log2 fold change” value was 0.568.
For RRIRDRPPRLPRPRPRPTANPRP, the “shrunken log2 fold change” value was 0.877.
With RRIRWRPPRLPRPRPRPAFTPRP the “shrunken log2 fold change” value was 0.0598.
With RRIRGRPPRLPRPRPRPDLKPRP the “shrunken log2 fold change” value was 0.0305.
In the case of RRIRTRPPRLPRPRPRPRDVPRP, the “shrunken log2 fold change” value is reported as 0.369.
In the case of RRIRYRPPRLPRPRPRPVGVPRP, the “shrunken log2 fold change” value is reported as -0.0394.
In the case of RRIRIRPPRLPRPRPRPVPCPRP, the “shrunken log2 fold change” value is reported as -0.00376.
RRIRYRPPRLPRPRPRPYISPRP was tested, and the “shrunken log2 fold change” value was -0.00213.
In the case of RRIRGRPPRLPRPRPRPGFGPRP, the “shrunken log2 fold change” value is reported as 0.649.
In the case of RRIRDRPPRLPRPRPRPISWPRP, the “shrunken log2 fold change” value is reported as 0.0803.
With RRIRWRPPRLPRPRPRPDKTPRP the “shrunken log2 fold change” value was -0.0185.
For RRIRYRPPRLPRPRPRPIFVPRP, the “shrunken log2 fold change” value was -0.418.
RRIRSRPPRLPRPRPRPCEYPRP was tested, and the “shrunken log2 fold change” value was 0.0232.
With RRIRERPPRLPRPRPRPGFSPRP the “shrunken log2 fold change” value was -0.196.
With RRIRRRPPRLPRPRPRPYQKPRP the “shrunken log2 fold change” value was -0.458.
For RRIRFRPPRLPRPRPRPSCLPRP, the “shrunken log2 fold change” value was -0.502.
With RRIRCRPPRLPRPRPRPIGWPRP the “shrunken log2 fold change” value was -0.0817.
RRIRPRPPRLPRPRPRPNRLPRP was tested, and the “shrunken log2 fold change” value was -0.0308.
RRIRWRPPRLPRPRPRPTPCPRP was tested, and the “shrunken log2 fold change” value was 0.212.
With RRIRVRPPRLPRPRPRPRSHPRP the “shrunken log2 fold change” value was 0.0021.
RRIRTRPPRLPRPRPRPEGAPRP was tested, and the “shrunken log2 fold change” value was 0.783.
In the case of RRIRYRPPRLPRPRPRPYTVPRP, the “shrunken log2 fold change” value is reported as -0.00544.
In the case of RRIRGRPPRLPRPRPRPDVRPRP, the “shrunken log2 fold change” value is reported as 0.0237.
With RRIRFRPPRLPRPRPRPNGIPRP the “shrunken log2 fold change” value was -0.286.
In the case of RRIRYRPPRLPRPRPRPKTPPRP, the “shrunken log2 fold change” value is reported as 0.103.
With RRIRNRPPRLPRPRPRPDWWPRP the “shrunken log2 fold change” value was 0.304.
With RRIRERPPRLPRPRPRPRKMPRP the “shrunken log2 fold change” value was -0.0569.
For RRIRYRPPRLPRPRPRPICQPRP, the “shrunken log2 fold change” value was -0.087.
RRIRIRPPRLPRPRPRPREAPRP was tested, and the “shrunken log2 fold change” value was 0.0165.
In the case of RRIRDRPPRLPRPRPRPTQEPRP, the “shrunken log2 fold change” value is reported as 0.604.
For RRIRQRPPRLPRPRPRPYDLPRP, the “shrunken log2 fold change” value was -0.0546.
RRIRMRPPRLPRPRPRPIIHPRP was tested, and the “shrunken log2 fold change” value was -0.136.
For RRIRMRPPRLPRPRPRPNFNPRP, the “shrunken log2 fold change” value was -0.23.
In the case of RRIRYRPPRLPRPRPRPWEYPRP, the “shrunken log2 fold change” value is reported as -0.142.
RRIRQRPPRLPRPRPRPTRLPRP was tested, and the “shrunken log2 fold change” value was 0.723.
For RRIRQRPPRLPRPRPRPHFKPRP, the “shrunken log2 fold change” value was -0.332.
